Here are results for 1 substance from article PMC3027643.

In this assay the target is mISCU/mNFS1/mISD11 complex (mouse) (UniProt Q9D7P6). Put plainly: native MS; ESI native mass spectrometry of the quaternary complexes after gel filtration, 50 mM ammonium acetate; masses of the GST-mFXN and the mFXN-HIS complex compared. On the technique in general: Size exclusion chromatography separates by hydrodynamic size, large species first.
UniProt Q9D7P6, sequence (Q9D7P6 36-168, chain 1 of 3): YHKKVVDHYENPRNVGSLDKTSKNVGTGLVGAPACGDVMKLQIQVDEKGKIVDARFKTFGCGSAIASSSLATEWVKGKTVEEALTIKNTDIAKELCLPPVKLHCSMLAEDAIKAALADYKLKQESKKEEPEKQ
UniProt Q9D7P6, sequence (Q9Z1J3 18-459, chain 2 of 3, further chain): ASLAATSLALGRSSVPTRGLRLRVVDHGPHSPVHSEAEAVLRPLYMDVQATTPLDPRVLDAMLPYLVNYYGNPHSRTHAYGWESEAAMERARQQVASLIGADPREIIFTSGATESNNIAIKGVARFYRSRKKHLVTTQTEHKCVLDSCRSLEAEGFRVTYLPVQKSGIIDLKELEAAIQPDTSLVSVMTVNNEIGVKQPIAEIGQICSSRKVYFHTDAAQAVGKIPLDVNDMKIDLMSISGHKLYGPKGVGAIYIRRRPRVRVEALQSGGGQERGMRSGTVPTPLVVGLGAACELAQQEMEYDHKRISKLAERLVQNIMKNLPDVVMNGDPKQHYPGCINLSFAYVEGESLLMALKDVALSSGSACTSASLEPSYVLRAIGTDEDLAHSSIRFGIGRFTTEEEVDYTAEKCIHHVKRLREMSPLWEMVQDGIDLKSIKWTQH
UniProt Q9D7P6, sequence (Q8K215 whole entry, chain 3 of 3, further chain): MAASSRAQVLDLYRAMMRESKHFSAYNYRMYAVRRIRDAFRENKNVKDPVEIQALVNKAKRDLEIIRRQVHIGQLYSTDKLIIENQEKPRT

For the substance mFXN-HIS (natural protein), the stoichiometry N (as a rule, a count of units in the complex or per binding partner) is 2.
